The supplement of paper PMC10724198
± gives the standard deviation of the averaged measurements.

tested on: Saccharomyces cerevisiae; assay: protein stability index of tFT-peptide fusion (C-terminal peptide) (PSI (0-1 scale)); higher = more stable (slower turnover); details: genetic background: cdc53-1; temperature: 37 C
Experimental: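 MPS profiling in S. cerevisiae of the tFT-X12 degron library: putative degron peptides plus stable controls, 12 aa, fused to the C-terminus of a sfGFP-mCherry timer. Cells are FACS-sorted into 8 mCherry/sfGFP bins and deep-sequenced. PSI runs from 0 (unstable) to 1 (stable). Backgrounds are wild type, das1Δ and doa10Δ at 30 °C, and wild type, das1Δ, cdc34-1 and cdc53-1 at 37 °C; 2-3 technical replicates each.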
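Note: PSI is a weighted mean of sequencing reads over stability bins, variants kept only with over 10 reads, mCherry proximal and sfGFP distal, peptide attached via GGGS linker.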

Sequence | protein stability index
GRWVLALCLVCG | 0.199 ± 0.0044
GSLLNLSLRWLV | 0.7289 ± 0.0067
GTMGWYSISRRL | 0.754 ± 0.025
GVCRFFCLVFCS | 0.5349 ± 0.0021
GVCSFFVCVFFV | 0.319 ± 0.034
GVFLVWWVGFWV | 0.401 ± 0.021
GVLFHIVLHFMV | 0.277 ± 0.01
GVMSICRWMISV | 0.427 ± 0.012
GVQFRRPLIPIY | 0.4877 ± 0.0027
GVVCVLGFALFV | 0.507 ± 0.042
GWGVFFVMRIQV | 0.259 ± 0.055
GWLVGLGLVFFT | 0.664 ± 0.01
GWRRRIWLCRLQ | 0.741 ± 0.038
GYLFICSWCEGF | 0.503 ± 0.01
HDRLRGVFWRVP | 0.739 ± 0.01
HGVRLHTVWVGG | 0.559 ± 0.026
HLKKKLKIRLIN | 0.685 ± 0.02
HSRALLPYLSYH | 0.753 ± 0.016
HTYSFRLLFIFL | 0.456 ± 0.016
HVPPVFQASLSP | 0.7368 ± 0.0055
ICFFQGVVVLFR | 0.403 ± 0.005
IFFVLVFFPGFF | 0.541 ± 0.022
IFHWLYLLIALI | 0.497 ± 0.015
IFLKFGLLRSLL | 0.8936 ± 0.0072
IGMVSELLLFYP | 0.7374 ± 0.0073
IGSFYVLSFICQ | 0.61 ± 0.018

Sequence | protein stability index
IHTFSVVVVVAA | 0.0437 ± 0.026
IIFACFYGVFLM | 0.0619 ± 0.03
ILDRRPRTFALV | 0.644 ± 0.018
IMGGLRHRIEVY | 0.403 ± 0.048
IRSLRPFLLPLF | 0.731 ± 0.018
IRVFSFLLFGCF | 0.503 ± 0.007
ISFQFFVCLCAR | 0.181 ± 0.0063
ISHLQCFFVVML | 0.507 ± 0.025
ISLSSLYVVMYV | 0.418 ± 0.041
IVFFVLFRFWRF | 0.3827 ± 0.0031
IVRLGRWLGLSC | 0.691 ± 0.025
IYEAFLVFCLCG | 0.454 ± 0.011
KKKEIIKIIKIN | 0.643 ± 0.044
KKKKKKKIKIMS | 0.706 ± 0.019
KKKNIYKVMKLE | 0.706 ± 0.011
KLCVGLVLSFVC | 0.503 ± 0.043
KWGRFQQVMVIN | 0.664 ± 0.014
KYQVIILQTRKI | 0.754 ± 0.0091
LACGIDGYYWRH | 0.7448 ± 0.0019
LAFMYFVCPRLA | 0.645 ± 0.0077
LAVVLVWVPGRW | 0.526 ± 0.057
LCFFLAFSFVFF | 0.324 ± 0.011
LCFGMVELMWIY | 0.52 ± 0.071
LCFRLVSYLCIN | 0.694 ± 0.013
LCGIFTFRLSLL | 0.7815 ± 0.0027
LCIYNFGWWFCV | 0.637 ± 0.044

Sequence | protein stability index
LCLLCWIPCSFR | 0.62751 ± 0.00045
LCLLFLSFFFVC | 0.515 ± 0.014
LCVVVICCLMAR | 0.198 ± 0.055
LDLSSVFILYFN | 0.6735 ± 0.0021
LEGRFLACRGIC | 0.719 ± 0.048
LEVHGSCIFICV | 0.5462 ± 0.0037
LFAIFLVVLLFR | 0.089 ± 0.0072
LFFPLPGILSFF | 0.771 ± 0.022
LFFWVLTVMFVW | 0.23 ± 0.0048
LFGRVLSGILSV | 0.721 ± 0.015
LFLLSHYALCFY | 0.53 ± 0.018
LFLSFLLFVLAF | 0.444 ± 0.015
LFLSIFFFHLLF | 0.251 ± 0.049
LFPVFFPLFAPA | 0.336 ± 0.035
LFSCTQLLPITA | 0.077 ± 0.012
LFSIFMSYRVYI | 0.435 ± 0.021
LFSTRRWISVCA | 0.0362 ± 0.013
LFSVLVFIYFVM | 0.113 ± 0.017
LFTSGNSLVLVH | 0.257 ± 0.02
LFYVSFLFMLLF | 0.34751 ± 0.00024
LGALFGRFWWYF | 0.7416 ± 0.0074
LGCLVWGGVWGV | 0.7595 ± 0.00079
LGFSHTRAIFFV | 0.7312 ± 0.0055
LGGCVSYINLLA | 0.682 ± 0.018
LGRFHLACLLFL | 0.61417 ± 0.00036
LGVLVVAFCGGC | 0.554 ± 0.0076
